According to article PMC6561319, “Proteomic Profiling, Transcription Factor Modeling, and Genomics of Evolved Tolerant Strains Elucidate Mechanisms of Vanillin Toxicity in Escherichia coli” (mSystems, 2019):

Assays:
[1] = substrate: COc1cc(C=O)ccc1O; assay: purified protein; type: biochemical, Escherichia coli; conditions: 0.1 mM NADPH, 100 mM phosphate pH 7.4, 37°C
[2] = substrate: O=C(O)CC(=O)C(=O)O; assay: purified protein; type: biochemical, Escherichia coli; conditions: 67 μM acetyl-CoA (fixed), 0.2 mM DTNB, 100 mM Tris-HCl pH 8, 37°C

Row | Protein | Km [1] [µM] | kcat [1] [s⁻¹] | Km [2] [µM] | Vmax [2] [µmol/min/mg] | kcat [2] [s⁻¹] | kcat/Km [2] [M⁻¹ s⁻¹]
1 | DkgA (Escherichia coli K-12) (protein) ANPTVIKLQDGNVMPQLGLGVWQASNEEVITAIQKALEVGYRSIDTAAAYKNEEGVGKALKNASVNREELFITTKLWNDDHKRPREALLDSLKKLQLDYIDLYLMHWPVPAIDHYVEAWKGMIELQKEGLIKSIGVCNFQIHHLQRLIDETGVTPVINQIELHPLMQQRQLHAWNATHKIQTESWSPLAQGGKGVFDQKVIRDLADKYGKTPAQIVIRWHLDSGLVVIPKSVTPSRIAENFDVWDFRLDKDELGEIAKLDQGKRLGPDPDQFGG | 200 ± 80 | 0.0467 | – | – | – | –
2 | YqhD (Escherichia coli K-12) (protein) MNNFNLHTPTRILFGKGAIAGLREQIPHDARVLITYGGGSVKKTGVLDQVLDALKGMDVLEFGGIEPNPAYETLMNAVKLVREQKVTFLLAVGGGSVLDGTKFIAAAANYPENIDPWHILQTGGKEIKSAIPMGCVLTLPATGSESNAGAVISRKTTGDKQAFHSAHVQPVFAVLDPVYTYTLPPRQVANGVVDAFVHTVEQYVTKPVDAKIQDRFAEGILLTLIEDGPKALKEPENYDVRANVMWAATQALNGLIGAGVPQDWATHMLGHELTAMHGLDHAQTLAIVLPALWNEKRDTKRAKLLQYAERVWNITEGSDDERIDAAIAATRNFFEQLGVPTHLSDYGLDGSSIPALLKKLEEHGMTQLGENHDITLDVSRRIYEAAR | 270 ± 40 | 0.103 | – | – | – | –
3 | GltA (citrate synthase) (Escherichia coli K-12) (protein, hexamer) MADTKAKLTLNGDTAVELDVLKGTLGQDVIDIRTLGSKGVFTFDPGFTSTASCESKITFIDGDEGILLHRGFPIDQLATDSNYLEVCYILLNGEKPTQEQYDEFKTTVTRHTMIHEQITRLFHAFRRDSHPMAVMCGITGALAAFYHDSLDVNNPRHREIAAFRLLSKMPTMAAMCYKYSIGQPFVYPRNDLSYAGNFLNMMFSTPCEPYEVNPILERAMDRILILHADHEQNASTSTVRTAGSSGANPFACIAAGIASLWGPAHGGANEAALKMLEEISSVKHIPEFVRRAKDKNDSFRLMGFGHRVYKNYDPRATVMRETCHEVLKELGTKDDLLEVAMELENIALNDPYFIEKKLYPNVDFYSGIILKAMGIPSSMFTVIFAMARTVGWIAHWSEMHSDGMKIARPRQLYTGYEKRDFKSDIKR | – | – | 154 ± 25 | 4.8 | 3.87 ± 0.233 | 25100 ± 1470
